Results on four sequences are retold here after paper PMC2871789.

Common to all, as to experiment: EMSA
A general note: A gel shift assay detects complexes by their altered migration in electrophoresis.

Data set [1] addresses T1, RelB (Mycobacterium tuberculosis H37Rv) (UniProt O50462).
T1 sequence: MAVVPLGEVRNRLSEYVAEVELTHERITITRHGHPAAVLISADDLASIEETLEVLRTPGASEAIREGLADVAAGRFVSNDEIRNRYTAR

The target in data set [2] is RelK (Mycobacterium tuberculosis H37Rv) (UniProt P9WF09).
Data set [3] deals with T2, RelB;RelE (Mycobacterium tuberculosis H37Rv;Mycobacterium tuberculosis H37Rv) (UniProt O50462+O50461).
T2 sequence 1: T1 sequence
T2 sequence 2: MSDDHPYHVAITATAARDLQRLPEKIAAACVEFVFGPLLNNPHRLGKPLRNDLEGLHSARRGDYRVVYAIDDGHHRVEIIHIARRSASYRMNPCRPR

Data set [4] has as its target RelB;RelK (Mycobacterium tuberculosis H37Rv;Mycobacterium tuberculosis H37Rv) (UniProt O50462+P9WF09).
Data set [5] addresses T3, RelE (Mycobacterium tuberculosis H37Rv) (UniProt O50461).
T3 sequence: T2 sequence 2

Data set [6] has as its target T4, RelB;RelG (Mycobacterium tuberculosis H37Rv;Mycobacterium tuberculosis H37Rv) (UniProt O50462+O33348).
T4 sequence 1: T1 sequence
T4 sequence 2: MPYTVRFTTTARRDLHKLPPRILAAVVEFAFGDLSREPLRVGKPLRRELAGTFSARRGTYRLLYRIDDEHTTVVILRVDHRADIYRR

For data set [7], the target named is T5, RelF;RelE (Mycobacterium tuberculosis H37Rv;Mycobacterium tuberculosis H37Rv) (UniProt O33347+O50461).
T5 sequence 1: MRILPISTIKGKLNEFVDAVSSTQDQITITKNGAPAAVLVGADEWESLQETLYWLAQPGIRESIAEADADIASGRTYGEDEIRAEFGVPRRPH
T5 sequence 2: T2 sequence 2

Data set [8] concerns the target T6, RelF;RelG (Mycobacterium tuberculosis H37Rv;Mycobacterium tuberculosis H37Rv) (UniProt O33347+O33348).
T6 sequence 1: T5 sequence 1
T6 sequence 2: T4 sequence 2

RelB;RelK (Mycobacterium tuberculosis H37Rv;Mycobacterium tuberculosis H37Rv), sequence (P9WF09 whole entry, one chain of several): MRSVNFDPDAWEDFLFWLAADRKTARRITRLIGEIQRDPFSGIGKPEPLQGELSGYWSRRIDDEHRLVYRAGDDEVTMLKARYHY
RelK (Mycobacterium tuberculosis H37Rv), sequence (P9WF09 whole entry): as the sequence (P9WF09 whole entry, one chain of several) above

As to “ACCGTCTAGATGACAAGTTGGCCGGGATCAAGCGAATCTCGCGCCGGGCGATGTCAGCCCCGTCGTCAGGCTCGTCGAAGGTGCACGCCGTCGAACAGCAGGAGATCCTCGACGAGGCGTTCGGCTGAGTTCGCTCAGCCGAACGCTCGAGGAGACATCAAACAGCGACGAGGCGTTCGGCTCGGTAAGCCGATGCTCGGCGTACAGGGTTTAGCCATACTTTTAGCTACAATCGCGGTTATGGCTGTTGTCCCACTGGGTATA (double strand) [1247p]”, the binding result in data set [1] is given as “no binding”; in data set [2], “no binding”; in data set [3] it was “binds”; in data set [4], “binds”; in data set [5], “no binding”; in data set [6] it was “binds”.
“ATCTTCTAGAACACACCGAGACCGAACCGTTACGCCGAGACTAGGTCGCGAATGGAACACCACCGCGAAAATCGTGGCCAGAAATCGCAACCACGTTACGCTCGCGACCGCTCAATCGAGCAAGGCGCCGACCGCAAGCACCAGCAAACCTGAGACGCCGCGCACAAAGTGCGAAACCACTGGAAGGTGAGCCCTAATTTAGGGCTGAGCAGGACCTGTATAACGGCCTAGTATGGCGGTATGCGGATACTGCCGATTTCTATA (double strand) [2865p]”: the binding entry in data set [7] and in data set [8] was “binds” in each case.
Take “GGCGTTCGGCTCGGTAAGCCGATGCTCGGCGTACAGGGTTTAGCCATACTTTTAGCTACAATCGCGGTTATGGCTGTTGTCCCACTGGGTATA (double strand) [1247p3]”: the binding entry in data set [3] is “binds”.
On the same count and under the same terms, then “TCCGAACGCCTCGTCGCTGTTTGATGTCTCCTCGAGCGTTCGGCTGAGCGAACTCAGCCGAACGCCTCGTCGAGGATCTCCTGCTGTTCGACGGCGTGCACCTTCGACGAGCCTGACGACGGGGCTGACATCGCCCGGCGCGAGATTCGCTTGATCCCGGCCAACTTGTCATCTAGACGGT (double strand) [1247p5]”, with “no binding”.
